One molecule from patent US20150291521, “PYRROL-1-YL BENZOIC ACID DERIVATIVES USEFUL AS MYC INHIBITORS” (DANA-FARBER CANCER INSTITUTE, INC., published 2015) can be followed below.

One data set concerns the target Max/Max homodimer (Homo sapiens, UniProt P61244 P61244:1-160). Nature of the data set: EMSA; Max/Max/Ebox complex; disrupted by compound 101, not 79. The note with it: tags: His6-Max; chain copies: 2 (stated); label: 5' biotin-triethyleneglycol; self-complementary. Background: In EMSA bound probe runs differently from free probe, usually more slowly.
Another data set concerns the target c-Myc/Max heterodimer (Homo sapiens, UniProt P01106-1;P61244 P01106-1:1-439,P61244:1-160). Nature of the data set: EMSA; complex formed with purified proteins; inhibited dose-dependently by compound 63. The conditions noted are these: tags: c-Myc full-length, His6 removed by thrombin (assay 1) or His6-c-Myc (reciprocal assay), label: 5' biotin-triethyleneglycol, self-complementary.

Chain of Max/Max homodimer (P61244 whole entry, one chain of several): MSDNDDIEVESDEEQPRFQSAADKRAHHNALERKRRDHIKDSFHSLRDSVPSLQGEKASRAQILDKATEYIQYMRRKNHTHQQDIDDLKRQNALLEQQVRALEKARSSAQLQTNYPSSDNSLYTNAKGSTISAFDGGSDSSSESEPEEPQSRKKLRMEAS
Chain of c-Myc/Max heterodimer (P01106 16-454, chain 1 of 2): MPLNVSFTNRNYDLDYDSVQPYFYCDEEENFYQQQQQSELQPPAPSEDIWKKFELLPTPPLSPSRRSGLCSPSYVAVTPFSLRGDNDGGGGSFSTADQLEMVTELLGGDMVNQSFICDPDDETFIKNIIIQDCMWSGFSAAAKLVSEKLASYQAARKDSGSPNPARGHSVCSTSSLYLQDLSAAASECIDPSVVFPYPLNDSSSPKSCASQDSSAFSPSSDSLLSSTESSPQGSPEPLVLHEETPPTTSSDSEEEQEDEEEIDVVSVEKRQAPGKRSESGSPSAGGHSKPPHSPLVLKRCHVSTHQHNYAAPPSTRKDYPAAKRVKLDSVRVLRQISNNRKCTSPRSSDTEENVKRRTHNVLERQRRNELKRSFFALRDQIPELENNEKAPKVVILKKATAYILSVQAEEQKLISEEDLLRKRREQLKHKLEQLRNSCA
Chain of c-Myc/Max heterodimer (P61244 whole entry, chain 2 of 2): as the sequence (P61244 whole entry, one chain of several) above

B1: Ebox DNA (dsDNA)
DNA 1: GGAAGCAGACCACGTGGTCTGCTTCC
DNA 2: GGAAGCAGACCACGTGGTCTGCTTCC
B1: the binding result with Max/Max homodimer and with c-Myc/Max heterodimer was “binds” in each case.
